B1: TET3 peptide 1705-1720 (methylcytosine dioxygenase TET3), 16-mer library wild type / USP8 rhodanese domain (ubiquitin carboxyl-terminal hydrolase 8, residues 174-317) (parent)
chain 1: GLALWEAKMKQLAERA
chain 2: KCETKEKGAITAKELYTMMTDKNISLIIMDARRMQDYQDSCILHSLSVPEEAISPGVTASWIEAHLPDDSKDTWKKRGNVEYVVLLDWFSSAKDLQIGTTLRSLKDALFKWESKTVLRNEPLVLEGGYENWLLCYPQYTTNAKV

Variants of: B1
Experiment: peptide-phage display deep mutational scan (M13, 16-mer library, displayed with a C-terminal GGGSG linker encoded by the 3' flank) selected against the GST-tagged USP8 rhodanese domain, four rounds; NGS counts summed over selection …
Settings: with USP8 rhodanese domain (ubiquitin carboxyl-terminal hydrolase 8, residues 174-317), 10 µg GST-bait on MaxiSorp, pre-cleared on GST, 2 h at 4 °C, five washes with 0.05% Tween 20 in PBS, not graded, scale: average over two replicas of the peptide's fractional NGS count

Screen value, by site and new letter:
chain 1 W5: K 8.66e-06; V 4.33e-06; R 1.58e-05; H 4.33e-06; G 7.36e-05; M 0.00029; F 4.33e-06; P 4.33e-05; T 4.33e-06; S 7.78e-05; L 1.15e-05
chain 1 A16: Q 0.00138; H 2.3e-05; D 0.027; Y 1.58e-05; E 0.00115; P 0.0179; S 0.00296; V 0.00901; R 8.66e-06; T 0.00395; N 0.00504; M 0.000143; I 0.00523; L 6.61e-05; G 6.5e-05; F 4.33e-06
chain 1 A13: V 0.0163; L 0.000154; D 2.6e-05; E 0.0925; H 0.0027; K 2.6e-05; I 1.3e-05; G 0.0144; M 5.89e-05; T 3.6e-05; Y 2.45e-05; P 5.48e-05; Q 0.00219; N 0.000273
chain 1 L12: M 4.33e-06; R 1.15e-05; A 1.15e-05; S 4.33e-06; K 4.33e-06; I 4.33e-06; F 8.66e-06
chain 1 K10: Y 0.000154; S 0.0345; N 0.0933; M 1.15e-05; A 0.0149; E 0.0209; R 0.00248; L 0.000183; P 8.66e-06; V 0.00689; H 0.0117; G 0.00596; I 0.00024; F 8.06e-05; T 0.00016; D 0.000192; W 0.00214; Q 0.000152
chain 1 R15: L 0.000427; S 0.0149; G 0.000816; T 0.00935; W 0.000125; M 0.000392; D 7.21e-05; P 0.0867; Q 0.0216; A 4.33e-06; N 8.62e-05; F 2.3e-05; H 0.000187; V 2.45e-05; E 0.00031; Y 0.0485; K 0.000386
chain 1 G1: Q 8.66e-06; E 6.35e-05; R 4.33e-06; K 2.01e-05; N 4.46e-05
chain 1 E14: D 2.73e-05; Q 4.03e-05; M 0.000615; S 7.32e-05; V 0.000238; T 8.66e-06; A 4.18e-05; W 4.33e-06; F 0.000199; G 0.000341; L 0.000367; I 4.33e-06; N 6.5e-05; Y 2.3e-05
chain 1 M9: A 0.00064; W 0.00223; Y 3.9e-05; S 0.0119; H 3.75e-05; T 0.000181; P 2.45e-05; Q 3.16e-05; L 4.33e-06; V 1.3e-05; I 4.74e-05; F 1.3e-05; R 0.000108; N 1.73e-05
chain 1 L4: H 1.3e-05; M 0.0286; A 9.18e-05; P 4.33e-06; E 9.1e-05; K 4.33e-06; S 4.74e-05; D 4.33e-06; I 0.211; F 0.000225; Q 0.00044; R 0.000374; T 0.000596; G 2.3e-05; V 0.00974; N 0.00113
chain 1 K8: P 1.73e-05; E 4.33e-06; N 2.3e-05; Q 4.33e-06
chain 1 E6: F 8.66e-06; S 0.000221; G 0.000196; H 3.9e-05; D 9.38e-05; Y 1.15e-05; V 1.15e-05; A 8.66e-06
chain 1 L2: S 1.15e-05; R 4.33e-06; K 1.3e-05; T 4.33e-06; M 0.000603; W 0.000401; F 4.18e-05; V 0.00764; Y 1.73e-05; I 0.00377; A 4.33e-06; P 4.33e-06; H 2.73e-05
chain 1 A3: Y 0.000177; G 3.88e-05; V 0.000173; S 0.000145; T 5.18e-05; E 0.064; Q 0.00817; L 4.33e-06; D 0.0209; H 8.66e-06

— PMC12057046, “Elucidation of short linear motif-based interactions of the MIT and rhodanese domains of the ubiquitin-specific protease 8” (Biology Direct, 2025)
